For this series, the system named is Escherichia coli TOP10. Description: shrunken log2 fold change of peptide-encoding DNA abundance (4.5 h post-induction vs induction); higher = less antimicrobial activity (less host growth inhibition). As to conditions: time post-induction: 4.5 h; library: site-saturation at positions 5, 18, 19, 20.
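Further: peptides expressed intracellularly from a pBAD plasmid library in pooled LB shake-flask culture, induced with 0.3% L-arabinose, DNA abundance read by NGS, three biological replicates, DESeq2 with apeglm shrinkage.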

For RRIRHRPPRLPRPRPRPYDIPRP, the “shrunken log2 fold change” value is -0.387.
Consider RRIRLRPPRLPRPRPRPKRTPRP, for which the “shrunken log2 fold change” value was found to be 0.21.
For RRIRRRPPRLPRPRPRPWIVPRP, the “shrunken log2 fold change” value came out at 3.
With RRIRIRPPRLPRPRPRPQMNPRP, the “shrunken log2 fold change” value is -0.887.
The same measure for RRIRFRPPRLPRPRPRPGTCPRP: -0.161; for RRIRRRPPRLPRPRPRPWDTPRP: -0.139.
The same measure for RRIRNRPPRLPRPRPRPVVAPRP: -0.0949; for RRIRQRPPRLPRPRPRPAFAPRP: 0.344; for RRIRLRPPRLPRPRPRPANCPRP: -0.291.
The same measure for RRIRTRPPRLPRPRPRPADCPRP: -0.082.
Turning to RRIRPRPPRLPRPRPRPKTWPRP, the “shrunken log2 fold change” value turned out to be 0.0474.
The same measure for RRIRYRPPRLPRPRPRPRCKPRP: -0.573; for RRIRCRPPRLPRPRPRPSAEPRP: 0.153; for RRIRQRPPRLPRPRPRPPLFPRP: 0.838.
The same measure for RRIRWRPPRLPRPRPRPNVYPRP: -0.234; for RRIRERPPRLPRPRPRPNISPRP: -1.14; for RRIRNRPPRLPRPRPRPWDMPRP: -0.304.
The same measure for RRIRARPPRLPRPRPRPHWAPRP: -0.0191.
On to RRIRDRPPRLPRPRPRPKSWPRP, for which the “shrunken log2 fold change” value was determined as 0.421.
With RRIRPRPPRLPRPRPRPFIVPRP, the “shrunken log2 fold change” value is -0.257.
In the case of RRIRMRPPRLPRPRPRPTQKPRP, the “shrunken log2 fold change” value was found to be 0.168.
RRIRARPPRLPRPRPRPYTYPRP: the “shrunken log2 fold change” value was -0.458.
The same measure for RRIRGRPPRLPRPRPRPKLEPRP: 0.507; for RRIRSRPPRLPRPRPRPCNKPRP: -0.225; for RRIRNRPPRLPRPRPRPSHTPRP: -0.412.
The same measure for RRIRFRPPRLPRPRPRPINCPRP: -0.257; for RRIRHRPPRLPRPRPRPYFWPRP: -0.258; for RRIRARPPRLPRPRPRPARTPRP: 0.584.
The same measure for RRIRIRPPRLPRPRPRPCACPRP: -0.889; for RRIRSRPPRLPRPRPRPVGSPRP: 0.304.
Take RRIRCRPPRLPRPRPRPPDAPRP: the “shrunken log2 fold change” value was found to be 0.354.
The same measure for RRIRERPPRLPRPRPRPSRAPRP: 0.12.
The same measure for RRIRLRPPRLPRPRPRPTPPPRP: 0.648.
In the case of RRIRARPPRLPRPRPRPFQSPRP, the “shrunken log2 fold change” value amounted to 0.105.
The same measure for RRIRFRPPRLPRPRPRPDMMPRP: -0.0389; for RRIRTRPPRLPRPRPRPVNAPRP: -0.189.
The same measure for RRIRGRPPRLPRPRPRPNRMPRP: -0.00965; for RRIRHRPPRLPRPRPRPMIYPRP: -0.105; for RRIRHRPPRLPRPRPRPQRLPRP: 0.00653.
As to RRIRARPPRLPRPRPRPSCFPRP, the “shrunken log2 fold change” value was determined as 0.0871.
The same measure for RRIRYRPPRLPRPRPRPTRMPRP: 0.09; for RRIRMRPPRLPRPRPRPRASPRP: 1.08; for RRIRQRPPRLPRPRPRPNHIPRP: -0.526.
In the case of RRIRKRPPRLPRPRPRPKQMPRP, the “shrunken log2 fold change” value came to 0.471.
Turning to RRIRARPPRLPRPRPRPDSLPRP, the “shrunken log2 fold change” value was determined as 0.0733.
The same measure for RRIRMRPPRLPRPRPRPQIAPRP: 0.208; for RRIRIRPPRLPRPRPRPSSWPRP: 0.025.
The same measure for RRIRFRPPRLPRPRPRPCWNPRP: 0.151; for RRIRQRPPRLPRPRPRPCWAPRP: -0.139; for RRIRPRPPRLPRPRPRPEPNPRP: 0.293.
Regarding RRIRWRPPRLPRPRPRPENQPRP, the “shrunken log2 fold change” value was 0.353.
Consider RRIRFRPPRLPRPRPRPHPWPRP, for which the “shrunken log2 fold change” value is -0.212.
The same measure for RRIRWRPPRLPRPRPRPNNHPRP: -0.588; for RRIRIRPPRLPRPRPRPDWLPRP: -0.166; for RRIRQRPPRLPRPRPRPRFGPRP: 0.198.
The same measure for RRIRIRPPRLPRPRPRPSHFPRP: -0.641; for RRIRDRPPRLPRPRPRPTLAPRP: 0.933; for RRIRVRPPRLPRPRPRPLPYPRP: -0.587.
The same measure for RRIRFRPPRLPRPRPRPDMQPRP: -0.313; for RRIRCRPPRLPRPRPRPYWDPRP: -1.1.
Take RRIRQRPPRLPRPRPRPPRAPRP: the “shrunken log2 fold change” value is 0.552.
The same measure for RRIRWRPPRLPRPRPRPPDMPRP: 0.0014; for RRIRCRPPRLPRPRPRPHNNPRP: -0.991; for RRIRRRPPRLPRPRPRPFTAPRP: 0.128.
Consider RRIRYRPPRLPRPRPRPPGSPRP, for which the “shrunken log2 fold change” value was 0.0125.
In the case of RRIRCRPPRLPRPRPRPCERPRP, the “shrunken log2 fold change” value is -0.0644.
Regarding RRIRQRPPRLPRPRPRPSGEPRP, the “shrunken log2 fold change” value turned out to be 0.0168.
The same measure for RRIRFRPPRLPRPRPRPPCLPRP: -0.0576; for RRIRRRPPRLPRPRPRPHRMPRP: -0.203.
The same measure for RRIRFRPPRLPRPRPRPAGGPRP: 0.382.
The same measure for RRIRCRPPRLPRPRPRPAFYPRP: -0.146; for RRIRLRPPRLPRPRPRPSVTPRP: -0.267; for RRIRDRPPRLPRPRPRPAGCPRP: 0.738.
Turning to RRIRARPPRLPRPRPRPAYQPRP, the “shrunken log2 fold change” value amounted to 0.106.
The same measure for RRIRARPPRLPRPRPRPVMHPRP: 0.191; for RRIRHRPPRLPRPRPRPSHWPRP: -0.288; for RRIRRRPPRLPRPRPRPSATPRP: 0.756.
The same measure for RRIRYRPPRLPRPRPRPVIMPRP: -0.222; for RRIRRRPPRLPRPRPRPDWFPRP: 0.276.
The same measure for RRIRGRPPRLPRPRPRPGEMPRP: 1.31; for RRIRWRPPRLPRPRPRPYIDPRP: -0.23.
RRIRRRPPRLPRPRPRPDGGPRP: the “shrunken log2 fold change” value was determined as 0.149.
The same measure for RRIRRRPPRLPRPRPRPREPPRP: 1.04.
The same measure for RRIRERPPRLPRPRPRPEYRPRP: -0.00146; for RRIRIRPPRLPRPRPRPVPCPRP: -0.00376; for RRIRKRPPRLPRPRPRPFPDPRP: -0.112.
The same measure for RRIRGRPPRLPRPRPRPEYSPRP: 0.445.
For the sequence RRIRERPPRLPRPRPRPRLGPRP, the “shrunken log2 fold change” value was found to be 0.157.
With RRIRVRPPRLPRPRPRPRHDPRP, the “shrunken log2 fold change” value was 0.129.
The same measure for RRIRCRPPRLPRPRPRPCNNPRP: -0.31; for RRIRFRPPRLPRPRPRPLQMPRP: 0.236.
